Measured values taken from US20100069815A1 (ASAHI KASEI, published 2010).

Molecular target: T1, CD4 on CD4 positive cells in human peripheral blood (human, UniProt P01730 26-458)
T1 construct: whole, on cells; also called CD4 molecules
Assay: cell adsorption from human whole blood on covalently immobilized binder (GMA grafted nonwoven fabric column); flow cytometry; mean ± SD of 3
Experimental: Immediately before the initiation of experiment, the PBS(−) solution was drained off by flowing air through the column. 5.0 ml of healthy human fresh blood containing ACD-A ([…] Laboratories) (blood:ACD-A=6.7:1) was fed from the inlet of the cell adsorber at a flow rate of 1.0 ml/min with a syringe pump. After discarding the first five drops, the treated blood was collected from the outlet of the column.
The CD4 positive cell removal rate at that time was calculated based on the change in the number of leukocytes measured by Coulter counter, and the change in the proportion of CD4 positive cells in the recovered cells measured by flow cytometry with use of a flow cytometer (FACS Calibur: Becton, Dickinson and Company). The cells were stained by the following manner. 100 μl of the collected blood was added with 10 μl of anti-CD4-PE solution (clone SK3, Becton, Dickinson and Company), 10 μl of anti-CD8-FITC solution (clone RPA-T8, Becton, Dickinson and Company), and 10 μl of anti-CD45-PerCP solution (Becton, Dickinson and Company). The resultant mixture was allowed to be stained at room temperature for 30 minutes, and then was added with 1 ml of FACS Lysing solution (Becton, Dickinson and Company) to effect hemolysis. CD45 positive cells were gated as leukocytes, and the proportion of CD4 positive cells therein was assayed.

B1: Leu3a scFv-Normal (scFv)
scFv: MADIVLTQSPASLAVSLGQRATISCKASQSVDYDGDSYMNWYQQKPGQPPKLLIYAASNLESGIPARFTGSGSGTDFTLNIHPVEEEDTATYYCQQSYEDPPTFAGGTNLEIKGGGGSGGGGSGGGGSMVHLQESEPELVKPGASVKMSCKASGYTFTDYVINWVKQRTGQGLEWIGETYTGSGSSYYNEKFKDKATLTVDKASNIAYMQLSSLTSEDSAVYFCARRGKGTGFAFWGQGTLVTVSAAAADYKDDDDKGSSEQKLISEEDLGSRSTHHHHHHGSTK
notes: Covalently immobilized on GMA grafted nonwoven fabric in the assay
Question: For B1, which “CD4 positive cell removal rate (%)” value is on record?
Answer: Its value is 29.6%.
